From patent publication US9458465B2, “Compositions and methods to modulate cell membrane resealing” (RUTGERS, THE STATE UNIVERSITY OF NEW JERSEY, priority 2007, dated 2016)

Legend:
[1] = tested on: FDB muscle fibers from mg53−/− mice; assay: FM1-43 dye entry after UV-laser damage, mg53−/− FDB muscle fibers; assay type: cell-based; details: mg53−/− fibers; +Zn-HPT
Description: (§1) FIG. 20. Protective effect of zinc on membrane repair is lost in mg53−/− skeletal muscle. (a) individual flexor digitorum brevis (FDB) muscle fibers were isolated from wild type (WT) mice (3-6 months). A strong UV laser was applied to the FDB fiber that caused local damage to the muscle (arrow). Entry of FM1-43 fluorescent dye (2.5 μM) was used as an indicator for the measurement of membrane repair capacity. The images were taken 200 s following UV irradiation (control). […] (d) Schematic diagram of zinc-binding motifs in MG53. The amino-terminus of MG53 contains two putative zinc-binding motifs: one located at the RING motif (a.a. 1-56, human cDNA), and the other located at the B-box motif (a.a. 86-117, human cDNA). The specific amino acids that participate in zinc-binding are indicated.
as §1, with “Protective” for “FIG. 20. Protective”, “To access membrane repair capacity,” for “(a)”, “months) (FIG. 20a).” for “months).”, “Summary data for panel a and b (FIG. 20c). […]” for “(d)”, “indicated (FIG. 20d).” for “indicated.”

[2] = tested on: C2C12 cells expressing GFP-MG53; assay: GFP-MG53 redistribution on agent application without injury; assay type: cell-based, murine; details: 20 μM Zn-HPT, prolonged incubation (15 min)
Description: Extracellular zinc entry is essential for MG53-mediated vesicle translocation to acute membrane injury sites. To follow the process of intracellular vesicle translocation associated with repair of acute membrane damage, GFP-MG53 fusion protein was expressed in C2C12 myoblast cells (FIG. 21a). […] Acute injury of the cell generated by penetration of a microelectrode caused rapid translocation of MG53-containing vesicles at the injury site (arrow, right panel). […] C2C12 cells transiently transfected with GFP-MG53 was incubated with 20 μM Zn-HPT. Under control condition (0 min), GFP-MG53 was distributed in the cytosol, as well as intracellular vesicles (FIG. 21d).
An active ingredient from notoginseng can facilitate MG53-membrane repair function. GFP-MG53 was expressed in C2C12 cells and then these cells were perfused with an alcohol extract from notoginseng. […] Based on this observation, we reasoned that a therapeutic approach with the combination of MG53 and notoginseng may provide additive protective effects in preventing both inflammation and membrane damage to the cells, and thus can improve the function of MG53 when applied in tandem with recombinant MG53 protein or when applied alone as a supplement of pharmaceutical.

[3] = tested on: FDB muscle fibers from wild type (WT) mice; assay: FM1-43 dye entry after UV-laser damage, wild type FDB muscle fibers; assay type: cell-based; details: WT fibers; 2 μM zinc-ionophore
Description: as §1
as §1, with “Protective” for “FIG. 20. Protective”, “To access membrane repair capacity,” for “(a)”, “months) (FIG. 20a).” for “months).”, “Summary data for panel a and b (FIG. 20c). […]” for “(d)”, “indicated (FIG. 20d).” for “indicated.”

HEPM cells [4] = assay: LDH release after LPS treatment; assay type: cell-based, human; details: LPS 1 mg/mL, 24 hours, co-incubation
Description: Lipopolysaccarides can induce membrane damage in HEPM cells that can be prevented by exposure to MG53.

HEPM cells [5] = assay: LDH release after electroporation, HEPM; assay type: cell-based, human; details: 10 ug/mL, extracellular; various field strengths
Description: (§2) Recombinant MG53 can protect gum lining cells from cell membrane damage. (a) HEPM cells (5×10^4) were treated with 10 ug/mL recombinant human MG53 or vehicle control and then electroporated at various field strengths (FIG. 36). […] (b) MG53 or a vehicle control was added to recombinant LDH to generate standard curves for LDH activity.

[6] = tested on: Hela cervical epithelial cells; assay: Resealing after glass bead damage, Hela; assay type: cell-based; details: glass beads
Description: Effects of MG53 are specific to the function of the protein.

[7] = tested on: Human IB3 airway epithelial cells; assay: LDH release after glass bead damage, IB3; assay type: cell-based; details: glass beads; external protein
Description: External MG53 can reseal to membrane damage in airway epithelial cells. Human IB3 airway epithelial cells were treated with external recombinant human MG53 or vehicle control and then exposed to mechanical membrane damage by glass beads (FIG. 48).

HEK293 cells [8] = assay: LDH release after glass microbead damage, HEK293; assay type: cell-based, human; details: glass microbeads
Description: Recombinant MG53 can protect kidney cells from mechanical cell membrane damage. HEK293 cells (8×10^4) were treated with glass microbeads to induce mechanical damage (FIG. 37). Different does of recombinant human MG53 or vehicle control was applied to the samples when glass beads were added to the media. Cells were rotated on an orbital shaker and then the supernatant was analyzed for LDH levels.
(§3) Externally applied recombinant MG53 requires phosphatidylserine (PS) binding to reseal damaged membranes. HEK293 cells were treated with recombinant human MG53 or vehicle and them damaged by shaking in the presence of glass microbeads (black bars) (FIG. 40). Membrane damage is measured by LDH release from cells that is recorded by colormetric assay recorded at 488 nm. […] Thus, MG53 must be able to bind exposed PS on damaged cells in order to facilitate membrane repair. * p<0.05
as §3, with “HEK293” for “Externally applied recombinant MG53 requires phosphatidylserine (PS) binding to reseal damaged membranes. HEK293”, “41).” for “40).”

HEK293 cells [9] = assay: LDH release after electroporation, HEK293; assay type: cell-based, human; details: 10 ug/mL, extracellular; various field strengths
Description: Genetic overexpression of MG53 can prevent membrane damage. Human embryonic kidney (HEK293) cells were transfected with RFP-MG53 or RFP and then electroporated with fields of varying strength (FIG. 32). The amount of membrane damage was measured by assessing the amount of lactate dehydrogenase (LDH) that leaks into the extracellular media out of holes in the plasma membrane produced by electroporation. The more damage that occurs to the membrane, the higher the reading on the LDH assay will be. […] Thus, expression of exogenous MG53 in non-muscle cells can increase the capacity for cell membrane repair in such non-muscle cells.
as §2, with “kidney” for “gum lining”, “HEK293” for “HEPM”, “(8×10^4)” for “(5×10^4)”, “35).” for “36).”

[10] = PIP2-Strip lipid dot blot; assay type: binding; details: 1 μg/ml
[11] = tested on: E3-ligase activity of MG53; assay: In vitro ubiquitination with ATP, ubiquitin, E1 and E2 enzymes; assay type: biochemical; details: Ubc4 or UbcH5 as E2
Description: To test whether MG53 can catalyze ubiquitination in vitro, we prepared a recombinant maltose-binding protein (MBP) fusion protein for MG53. MBP-MG53 was incubated with ATP, ubiquitin, E1 and E2 enzymes, and subjected to immunoblotting with the anti-MBP antibody. […] The exclusion of either ubiquitin, E1 or E2 (UbcH5) from the assay abolished the appearance of such ladders, confirming that the modification acquired by MBP-MG53 was indeed auto-ubiquitination. […] Thus, MG53 is a Ring-finger type ubiquitin ligase that couples with Ubc4/5 sub-family of E2 enzymes.

[12] = tested on: C2C12 cells expressing GFP-MG53; assay: Repair of acute membrane damage: translocation to microelectrode injury site; assay type: cell-based, murine; details: C2C12 cells
Description: To follow the process of intracellular vesicle translocation associated with repair of acute membrane damage, GFP-MG53 fusion protein was expressed in C2C12 myoblast cells (FIG. 21a). […]
Cell culture—The C2C12 murine myoblast cell line used for all studies was purchased from the American Type Culture Collection (Manassas, Va.). Cells were grown in a humidified environment at 37° C. and 5% CO2 in DMEM medium for C2C12 or Ham's F12 medium for CHO cells supplemented with 10% fetal bovine serum, 100 units/ml penicillin and 100 ug/ml streptomycin. In order to induce myotube differentiation, C2C12 myoblasts were grown to confluence and the medium was switched to DMEM containing 2% horse serum, penicillin (100 U/ml), streptomycin (100 μg/ml). For transient transfections, C2C12 myoblasts or CHO cells were plated at 70% confluence in glass-bottom dishes. After 24 hours, cells were transfected with plasmids described above using GeneJammer reagent (Stratagene). Cells were visualized by live cell confocal imaging at 24-48 hours after transfection or at times indicated for individual experiments. In some experiments, C2C12 myoblasts were allowed to differentiate into myotubes for the indicated time before observation.
Live cell imaging—To monitor intracellular trafficking of GFP-MG53 either CHO or C2C12 cells were cultured in glass-bottom dishes (Bioptechs Inc.) and transfected with the plasmids described above. Fluorescence images (512×512) were captured at 3.18 s/frame using a BioRad 2100 Radiance laser scanning confocal microscope with a 63×1.3NA oil immersion objective.

mg53−/− myotubes = assay: Membrane repair in transfected mg53−/− myotubes; assay type: cell-based, mice; details: primary cultured mg53−/− myotubes
Description: The entry of FM4-64, a red-shifted variant of FM1-43, was used as an index of membrane repair capacity in mg53−/− myotubes transfected with GFP-MG53 and GFP-C242A. Following UV-bleaching of the green fluorescence, rapid translocation of GFP-MG53 took place at the injury site, whereas GFP-C242A remained static due to its defective oligomerization properties (FIG. 16E, 17A).
Similar defects with GFP-C29L were also observed in C2C12 myotubes (FIG. 18e, middle).

[O-]n1ccccc1=S.[O-]n1ccccc1=S.[Zn+2] [Zn-HPT, Zn-1-hydroxypyridine-2-thine]
membrane repair capacity (FM1-43 dye entry) [1]: did not produce protective effect on membrane repair | redistribution of GFP-MG53 [2]: caused redistribution of GFP-MG53 toward the cell surface membrane and the intracellular membrane compartments | membrane repair capacity (FM1-43 dye entry) [3]: increased membrane repair capacity

B1: recombinant human MG53: recombinant mitsugumin53 protein, muscle-specific TRIM family protein, applied extracellularly (protein)
chain: MSAAPGLLHQELSCPLCLQLFDAPVTAECGHSFCRACLGRVAGEPAADGTVLCPCCQAPTRPQALSTNLQLARLVEGLAQVPQGHCEEHLDPLSIYCEQDRALVCGVCASLGSHRGHRLLPAAEAHARLKTQLPQQKLQLQEACMRKEKSVAVLEHQLVEVEETVRQFRGAVGEQLGKMRVFLAALEGSLDCEAERVRGEAGVALRRELGSLNSYLEQLRQMEKVLEEVADKPQTEFLMKYCLVTSRLQKILAESPPPARLDIQLPIISDDFKFQVWRKMFRALMPALEELTFDPSSAHPSLVVSSSGRRVECSEQKAPPAGEDPRQFDKAVAVVAHQQLSEGEHYWEVDVGDKPRWALGVIAAEAPRRGRLHAVPSQGLWLLGLREGKILEAHVEAKEPRALRSPERRPTRIGLYLSFGDGVLSFYDASDADALVPLFAFHERLPRPVYPFFDVCWHDKGKNAQPLLLVGPEGAEA
prevention of LPS induced damage (LDH release) (HEPM cells [4]): can prevent damage to HEPM cells produced by LPS | membrane damage (LDH) from electroporation (HEPM cells [5]): can prevent damage from electroporation | membrane resealing [6]: effective at resealing damage | membrane resealing ([6]; recombinant protein boiled): can no longer facilitate membrane resealing | cell membrane damage (LDH release) [7]: could prevent cell membrane damage due to mechanical damage | saturating dose (HEK293 cells [8]): ~10 µg/mL | mechanical membrane damage (LDH levels) (HEK293 cells [8]; different doses): can prevent mechanical membrane damage | membrane damage (LDH) from electroporation (HEK293 cells [9]): can prevent damage from electroporation | lipid binding [10]: specifically binds phosphatidylserine (PS) and not other membrane lipids

B2: C29L: MG53 mutant, Cys-29 in the Ring-finger motif replaced with leucine; GFP fusion, MBP fusion in b268 (protein)
chain: MSAAPGLLRQELSCPLCLQLFDAPVTAELGHSFCRACLIRVAGEPAADGTVACPCCQAPTRPQALSTNLQLSRLVEGLAQVPQGHCEEHLDPLSIYCEQDRTLVCGVCASLGSHRGHRLLPAAEAQARLKTQLPQQKMQLQEACMRKEKTVAVLEHQLVEVEETVRQFRGAVGEQLGKMRMFLAALESSLDREAERVRGDAGVALRRELSSLNSYLEQLRQMEKVLEEVADKPQTEFLMKFCLVTSRLQKILSESPPPARLDIQLPVISDDFKFQVWKKMFRALMPALEELTFDPSSAHPSLVVSSSGRRVECSDQKAPPAGEDTRQFDKAVAVVAQQLLSQGEHYWEVEVGDKPRWALGVMAADASRRGRLHAVPSQGLWLLGLRDGKILEAHVEAKEPRALRTPERPPARIGLYLSFADGVLAFYDASNPDVLTPIFSFHERLPGPVYPIFDVCWHDKGKNAQPLLLVGPEQEQA
modifications: left off: large carriers
notes: MG53 mutant, Cys-29 in the Ring-finger motif replaced with leucine; GFP fusion, MBP fusion
ubiquitination / intrinsic E3-ligase activity [11]: significantly reduced | Membrane Repair (+Zn-HPT) ([12]; 2 μM Zn-HPT, listed as GFP-C29L): partially rescue the movement | translocation to injury site and membrane repair function of GFP fusion protein ([12]; acute membrane damage): immobile and ineffective in repair of membrane injury | Membrane Repair (−Zn-HPT) ([12]; extracellular solution with nominal free zinc, listed as GFP-C29L): defective movement toward the acute injury site | translocation to the plasma membrane following injury (mg53−/− myotubes): remained generally unresponsive to acute cell injury
